Results reported in patent publication US20110288011A1, “PEPTIDE THERAPEUTIC CONJUGATES AND USES THEREOF” (priority 2008, published 2011).

Tested on: ob/ob mice
Assay: Body weight of ob/ob mice treated with recombinant leptin
Type: in vivo
Conditions: 0.1 mg/mouse or 0.25 mg/mouse daily
Protocol: As a control, we tested the ability of recombinant leptin to reduce body weight in ob/ob mice using either 0.1 mg/mouse or 0.25 mg/mouse daily.

B1: recombinant leptin: recombinant leptin used as a control in ob/ob mice (protein, UniProt P41160 22-167, looked up)
Leptin: VPIQKVQDDTKTLIKTIVTRINDISHTQSVSAKQRVTGLDFIPGLHPILSLSKMDQTLAVYQQVLTSLPSQNVLQIANDLENLRDLLHLLAFSKSCSLPQTSGLQKPESLDGVLEASLYSTEVVALSRLQGSLQDILQQLDVSPEC
For B1, the body weight was “reduce body weight in these mice in a dose-dependent manner”.
